Data from patent publication US20080234193A1 (published 2008).

Experiments:
[1] = target: PEG-rFVIII Lys 20K br long (UniProt P00451)
[2] = target: PEG-rFVIII Lys 20K br short (UniProt P00451)
[3] = target: PEG-rFVIII Lys 40K br long (UniProt P00451)
[4] = target: PEG-rFVIII Lys 40K br short (UniProt P00451)
[5] = target: PEG-rFVIII Lys 60K br long (UniProt P00451)
[6] = target: PEG-rFVIII Lys 60K br short (UniProt P00451)
[7] = target: native rFVIII MOQ HEPES 01-E (Advate rAHF-PFM bulk drug substance) (UniProt P00451)
Sequence of native rFVIII MOQ HEPES 01-E (Advate rAHF-PFM bulk drug substance) (P00451 whole entry, looked up): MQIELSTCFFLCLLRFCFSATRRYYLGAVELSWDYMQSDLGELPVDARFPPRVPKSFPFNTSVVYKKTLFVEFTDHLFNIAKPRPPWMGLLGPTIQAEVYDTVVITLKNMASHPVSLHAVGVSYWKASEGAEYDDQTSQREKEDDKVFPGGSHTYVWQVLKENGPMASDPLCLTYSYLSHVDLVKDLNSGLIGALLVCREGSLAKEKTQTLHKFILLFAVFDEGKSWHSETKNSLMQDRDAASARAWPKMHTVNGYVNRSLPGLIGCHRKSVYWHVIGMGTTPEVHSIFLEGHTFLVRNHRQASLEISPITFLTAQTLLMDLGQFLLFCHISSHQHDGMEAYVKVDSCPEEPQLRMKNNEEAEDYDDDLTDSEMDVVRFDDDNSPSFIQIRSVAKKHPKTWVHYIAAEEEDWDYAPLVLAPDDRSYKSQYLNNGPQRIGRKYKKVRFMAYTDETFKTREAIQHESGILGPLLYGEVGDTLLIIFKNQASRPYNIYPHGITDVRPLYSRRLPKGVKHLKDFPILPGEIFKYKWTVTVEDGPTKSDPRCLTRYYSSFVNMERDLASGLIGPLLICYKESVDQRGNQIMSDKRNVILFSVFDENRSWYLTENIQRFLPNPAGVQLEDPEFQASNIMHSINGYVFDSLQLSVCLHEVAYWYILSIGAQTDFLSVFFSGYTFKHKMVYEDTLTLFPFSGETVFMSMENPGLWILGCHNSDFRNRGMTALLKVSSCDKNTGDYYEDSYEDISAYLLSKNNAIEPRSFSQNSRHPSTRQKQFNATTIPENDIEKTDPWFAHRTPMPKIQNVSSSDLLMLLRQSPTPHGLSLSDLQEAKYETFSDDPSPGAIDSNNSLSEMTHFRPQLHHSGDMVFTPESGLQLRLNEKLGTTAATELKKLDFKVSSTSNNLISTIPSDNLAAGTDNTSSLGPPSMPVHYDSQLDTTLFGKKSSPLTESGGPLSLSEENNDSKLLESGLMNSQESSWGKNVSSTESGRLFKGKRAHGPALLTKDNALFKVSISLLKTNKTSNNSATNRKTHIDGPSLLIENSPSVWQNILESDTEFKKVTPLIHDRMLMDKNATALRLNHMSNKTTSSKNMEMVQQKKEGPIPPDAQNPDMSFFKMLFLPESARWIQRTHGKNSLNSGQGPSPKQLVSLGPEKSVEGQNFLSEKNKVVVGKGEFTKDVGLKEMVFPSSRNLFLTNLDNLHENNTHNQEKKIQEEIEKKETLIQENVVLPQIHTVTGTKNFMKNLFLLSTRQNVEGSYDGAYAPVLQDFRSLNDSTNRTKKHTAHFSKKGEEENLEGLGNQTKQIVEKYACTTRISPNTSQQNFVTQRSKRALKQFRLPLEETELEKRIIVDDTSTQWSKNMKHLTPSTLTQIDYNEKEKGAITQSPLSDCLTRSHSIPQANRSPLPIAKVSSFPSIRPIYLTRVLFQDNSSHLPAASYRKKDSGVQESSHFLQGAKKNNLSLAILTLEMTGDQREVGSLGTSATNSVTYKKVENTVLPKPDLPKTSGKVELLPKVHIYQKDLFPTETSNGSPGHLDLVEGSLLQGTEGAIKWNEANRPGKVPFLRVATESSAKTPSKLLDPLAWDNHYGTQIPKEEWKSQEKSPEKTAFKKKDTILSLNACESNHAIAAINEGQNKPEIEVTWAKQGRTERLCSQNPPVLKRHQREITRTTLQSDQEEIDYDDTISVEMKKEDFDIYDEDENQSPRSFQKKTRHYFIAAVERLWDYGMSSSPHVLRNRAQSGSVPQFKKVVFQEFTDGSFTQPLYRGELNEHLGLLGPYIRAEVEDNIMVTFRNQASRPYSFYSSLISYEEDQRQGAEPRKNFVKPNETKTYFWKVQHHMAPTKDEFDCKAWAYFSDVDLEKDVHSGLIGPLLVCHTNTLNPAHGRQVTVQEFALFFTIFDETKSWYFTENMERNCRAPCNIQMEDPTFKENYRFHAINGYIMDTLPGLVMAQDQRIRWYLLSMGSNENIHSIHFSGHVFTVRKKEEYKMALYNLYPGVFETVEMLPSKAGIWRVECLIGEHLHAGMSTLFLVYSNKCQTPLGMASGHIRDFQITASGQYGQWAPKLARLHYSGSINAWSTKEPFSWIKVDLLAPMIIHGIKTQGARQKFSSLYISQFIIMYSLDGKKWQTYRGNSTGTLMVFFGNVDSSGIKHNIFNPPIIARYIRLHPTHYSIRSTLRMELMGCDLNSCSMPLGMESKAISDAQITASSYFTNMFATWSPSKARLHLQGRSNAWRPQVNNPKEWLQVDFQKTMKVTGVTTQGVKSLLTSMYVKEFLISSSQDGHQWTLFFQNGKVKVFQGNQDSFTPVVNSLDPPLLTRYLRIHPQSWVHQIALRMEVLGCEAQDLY

[8] = target: FVIII control (mock preparation, not PEGylated) (UniProt P00451)
Sequence of FVIII control (mock preparation, not PEGylated) (P00451 whole entry, looked up): as above

Sequence of PEG-rFVIII Lys 60K br short (P00451 whole entry, looked up): as above
Sequence of PEG-rFVIII Lys 20K br long (P00451 whole entry, looked up): as above
Sequence of PEG-rFVIII Lys 40K br long (P00451 whole entry, looked up): as above
Sequence of PEG-rFVIII Lys 20K br short (P00451 whole entry, looked up): as above
Sequence of PEG-rFVIII Lys 60K br long (P00451 whole entry, looked up): as above
Sequence of PEG-rFVIII Lys 40K br short (P00451 whole entry, looked up): as above

Row | Substance | Relative k' of APC-mediated inactivation (non-activated FVIII) relative to native rFVIII [1] | Relative k' of APC-mediated inactivation of thrombin-activated FVIII relative to native rFVIIIa [1] | Relative k' of APC-mediated inactivation (non-activated FVIII) relative to native rFVIII [2] | Relative k' of APC-mediated inactivation of thrombin-activated FVIII relative to native rFVIIIa [2] | Relative k' of APC-mediated inactivation (non-activated FVIII) relative to native rFVIII [3] | Relative k' of APC-mediated inactivation of thrombin-activated FVIII relative to native rFVIIIa [3] | Relative k' of APC-mediated inactivation (non-activated FVIII) relative to native rFVIII [4] | Relative k' of APC-mediated inactivation of thrombin-activated FVIII relative to native rFVIIIa [4] | Relative k' of APC-mediated inactivation (non-activated FVIII) relative to native rFVIII [5] | Relative k' of APC-mediated inactivation of thrombin-activated FVIII relative to native rFVIIIa [5] | Relative k' of APC-mediated inactivation (non-activated FVIII) relative to native rFVIII [6] | Relative k' of APC-mediated inactivation of thrombin-activated FVIII relative to native rFVIIIa [6] | first order rate of inactivation k', non-activated rFVIII, 0.05 U/ml APC [7] | Relative k' (first order inactivation rate relative to native rFVIII), 0.5 nM thrombin, FIXa-cofactor assay [8] | Relative k' (first order inactivation rate relative to native rFVIII), 0.5 nM thrombin, FIXa-cofactor assay [1] | Relative k' (first order inactivation rate relative to native rFVIII), 0.5 nM thrombin, FIXa-cofactor assay [2] | Relative k' (first order inactivation rate relative to native rFVIII), 0.5 nM thrombin, FIXa-cofactor assay [3] | Relative k' (first order inactivation rate relative to native rFVIII), 0.5 nM thrombin, FIXa-cofactor assay [4] | Relative k' (first order inactivation rate relative to native rFVIII), 0.5 nM thrombin, FIXa-cofactor assay [5] | Relative k' (first order inactivation rate relative to native rFVIII), 0.5 nM thrombin, FIXa-cofactor assay [6]
1 | activated protein C (APC) | 0.56 | 0.5 | 0.46 | 0.5 | 0.35 | 0.54 | 0.44 | 0.55 | 0.38 | 0.64 | 0.52 | 0.54 | a first order rate inactivation was observed, with a k' of 0.220*min^-1 |  |  |  |  |  |  | 
2 | thrombin |  |  |  |  |  |  |  |  |  |  |  |  |  | 0.72 | 0.39 | 0.35 | 0.44 | 0.48 | 0.51 | 0.46
